Reference: patent US6110707

What was measured:
[1] = biological target: human preproinsulin (human); details: scale: % of intracellular human insulin species left as proinsulin and intermediates
[2] = biological target: mutated human preproglucagon (arginine to alanine at amino acid residue 52) (human)
[3] = biological target: human preproglucagon (human)

HPLC separation of intracellular immunoreactive insulin species (processing of human proinsulin to mature insulin in engineered RIN cells) [1] | NON (% TOTAL): non-amidated GLP-1 as percentage of total GLP-1 (non-amidated and amidated), by two specific immunoassays (% non-amidated of total GLP-1) [2] | NON (% TOTAL): non-amidated GLP-1 as percentage of total GLP-1 (non-amidated and amidated), by two specific immunoassays (% non-amidated of total GLP-1) [3] | Substance
8 | – | – | PC2 (from UniProt P28841) (enzyme)
8 | – | – | PC3 (from UniProt P28840) (enzyme)
– | 59 | 49 | peptidylglycine alpha-amidating monooxygenase (PAM) (from UniProt P14925) (enzyme)
